Assay [1] concerns the target T1, collagen.
T1 construct: also called collagen surface; collagen-treated well
As to the kind of experiment: fluorescence plate binding assay; collagen coated on 96-well high-binding plate, Z-SILY 100 µM to 10 nM, ex/em 335/490 nm; from equilibrium binding. Here is the method: (§1) Binding assays were done in a 96-well high-binding plate, black with a clear bottom (Costar). Collagen was compared to untreated wells and BSA coated wells. Collagen and BSA were immobilized at 37° C. for 1 hr by incubating 90 µL/well at concentrations of 2 mg/mL in 10 mM HCl and 1×PBS, respectively. Each well was washed 3× with 1×PBS after incubating. Z-SILY was dissolved in 1×PBS at concentrations from 100 µM to 10 nM in 10-fold dilutions. Wells were incubated for 30 min at 37° C. and rinsed 3× with PBS and then filled with 90 µL of 1×PBS. Fluorescence readings were taken on an M5 Spectramax Spectrophotometer (Molecular Devices) at excitation/emission wavelengths of 335 nm/490 nm respectively.

Assay [2] concerns the target T1, collagen. The assay can be described thus: microplate fluorescence binding assay on collagen-coated wells, binding curve fitted to the data of FIGURE 4.
Description: Figure 4: FIG. 4. Binding of dansyl-modified peptide SILY to collagen measured in 96-well high-binding plate (black with a clear bottom (Costar)). PBS, buffer only; BSA, BSA-treated well; Collagen, collagen-treated well. Fluorescence readings were taken on an M5 Spectramax Spectrophotometer (Molecular Devices) at excitation/emission wavelengths of 335 nm/490 nm, respectively. Figure 5: FIG. 5. Collagen-dansyl-modified peptide SILY binding curve derived from fluorescence data described in FIG. 4. Figure 6: FIG. 6. A schematic description of the reagent, 3-(2-pyridyldithio)propionyl hydrazide (PDPH), and the chemistry of the two-step conjugation of a cysteine-containing peptide with an oxidized glycosylaminoglycoside showing the release of 2-pyridylthiol in the final step.
as §1, with “Wells were incubated for 30 min at 37° C. and rinsed 3× with PBS and then filled with 90 µL of 1×PBS.” left out

*: point of attachment. Dansyl = CN(C)c1cccc2c(S(=O)(=O)*)cccc12

B1: Dansyl-GRRANAALKAGELYKSILYGC (peptide)
peptide: Dansyl-GRRANAALKAGELYKSILYGC-NH2
notes: Fluorescently labelled version of SILY; also called Z-SILY; ZSILY
As to B1, the equilibrium dissociation constant (Kd) in assay [1] amounted to 860 nM. For the same molecule, in assay [2], the “EC50 (read off the curve)” value is ~900 nM.

What is called Kd is the constant that tells how readily two partners part at equilibrium. One may read the EC50 (read off the curve) as the concentration that produces a half-maximal response. Read a low EC50 (read off the curve) as an effect from little substance.

The values are drawn from patent US8846003 (PURDUE RESEARCH FOUNDATION, dated 2014).
